The values that follow come from article PMC9254494, “Modulation of synaptic plasticity, motor unit physiology, and TDP-43 pathology by CHCHD10” (Acta Neuropathologica Communications, 2022).

The target in this test is Recombinant full-length human TDP-43 (human, UniProt Q13148 1-414). As to the kind of experiment: cell-based or functional assay.
Chain of Recombinant full-length human TDP-43 (Q13148 whole entry): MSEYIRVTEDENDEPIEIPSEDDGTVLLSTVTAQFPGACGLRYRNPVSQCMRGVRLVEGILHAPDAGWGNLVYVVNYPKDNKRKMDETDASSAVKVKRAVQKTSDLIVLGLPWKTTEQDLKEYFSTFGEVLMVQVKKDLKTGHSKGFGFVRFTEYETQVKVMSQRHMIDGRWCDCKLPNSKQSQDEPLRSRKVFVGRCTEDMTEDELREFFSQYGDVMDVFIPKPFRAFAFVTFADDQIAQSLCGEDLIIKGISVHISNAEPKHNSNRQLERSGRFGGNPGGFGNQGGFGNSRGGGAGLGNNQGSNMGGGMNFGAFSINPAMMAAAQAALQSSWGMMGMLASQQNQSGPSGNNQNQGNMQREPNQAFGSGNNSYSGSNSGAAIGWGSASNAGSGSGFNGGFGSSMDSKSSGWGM

B1: His-tagged CHCHD10^S59L recombinant protein (natural protein, human, UniProt Q8WYQ3 17-142, looked up)
chain: AAPSAHPPAHPPPSAAAPAPAPSGQPGLMAQMATTAAGVAVGLAVGHVMGSALTGAFSGGSSEPSQPAVQQAPTPAAPQPLQMGPCAYEIRQFLDCSTTQSDLSLCEGFSEALKQCKYYHGLSSLP
Consider B1, for which the “area of high-height particles > 10 nm by atomic force microscopy after co-incubation of TDP-43 (1 μM) with CHCHD10^S59L (1 μM), 37 °C, 8 h, shaking, against TDP-43 alone” value is > 3 fold.
